Data on one substance can be found in patent US20040209282A1.

In experiment [1] the target is 38C13 IgM surface receptor (idiotype receptor) of 38C13 B lymphoma cells. In words: cell capture microarray, previously frozen 38C13 cells, microscopy.
For experiment [2] the target is unchanged. The experiment can be described thus: antibody microarray probed with 38C13 cell extract, goat anti-mouse IgM-HRP detection.
Experiment [3] has as its target purified IgM antibody (38C13). In words: antibody microarray on FAST slide, goat anti-mouse IgM-HRP detection, chemiluminescence.
The target of experiment [4] is 38C13 IgM surface receptor (idiotype receptor) of 38C13 B lymphoma cells. The experiment can be described thus: cell capture microarray, 38C13 cells growing in culture, no washing, microscopy.

With “S1C5 anti-idiotype monoclonal antibody (anti-IgM antibody)”, in experiment [1], the lowest printed antibody concentration at which bound cells were detected worked out at 6.25 µg/mL. In experiment [2], the extract dilution at which 38C13 IgM was detected (fold dilution (1:x)) was determined as 2000 and the lowest printed S1C5 concentration at which 38C13 IgM of the extract was detected stood at 50 µg/mL. In experiment [3], this substance returned an IgM concentration at which a strong signal was seen of 0.1 µg/mL and a lowest spotted S1C5 concentration giving a strong signal of 25 µg/mL. For the same substance, the lowest printed antibody concentration at which bound cells were detected in experiment [4] was 3.12 µg/mL.
